Results on two molecules are retold here after patent US20090136527A1.

Non-standard residues stand in square brackets, D forms with d. pGlu = O=C1CC[C@@H](C(=O)O)N1

For experiment [1], the target named is T1, human GnRH receptor (human) (UniProt P30968).
T1 sequence (looked up): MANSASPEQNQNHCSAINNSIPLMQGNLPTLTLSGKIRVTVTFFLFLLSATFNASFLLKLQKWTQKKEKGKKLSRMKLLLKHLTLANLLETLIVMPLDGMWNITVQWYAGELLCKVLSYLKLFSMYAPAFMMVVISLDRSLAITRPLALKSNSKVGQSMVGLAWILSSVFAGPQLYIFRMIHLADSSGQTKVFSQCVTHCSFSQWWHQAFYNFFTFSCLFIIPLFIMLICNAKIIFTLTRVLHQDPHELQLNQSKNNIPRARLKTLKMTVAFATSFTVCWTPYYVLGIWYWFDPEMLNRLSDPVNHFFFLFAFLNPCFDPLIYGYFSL
The experiment is described as follows: cell-based or functional assay.

Experiment [2] has as its target affinity purified rabbit anti-RI-GnRH antibody fraction eluted with potassium thiocyanate, first fraction (KSCN 1). The experiment is described as follows: inhibition ELISA: antibody fraction preincubated with free peptide, binding to coated RI-GnRH. A general note: An ELISA detects its analyte on a solid surface through an enzyme-linked reagent.

B1: GnRH II ([His5, Trp7, Tyr8]GnRH) (peptide)
peptide: [pGlu]HWSHGWYPG-NH2
SMILES: NC(=O)CNC(=O)[C@@H]1CCCN1C(=O)[C@H](Cc1ccc(O)cc1)NC(=O)[C@H](Cc1c[nH]c2ccccc12)NC(=O)CNC(=O)[C@H](Cc1c[nH]cn1)NC(=O)[C@H](CO)NC(=O)[C@H](Cc1c[nH]c2ccccc12)NC(=O)[C@H](Cc1c[nH]cn1)NC(=O)[C@@H]1CCC(=O)N1
On to B1, for which the half-maximal effective concentration (EC50) of IP production in experiment [1] was determined as 1 nM. In experiment [2], EHWSYGLQPG (pGlu (pyroglutamate) at position 1; C-terminal amide) [chicken GnRH I ([Gln8]GnRH)] showed an IC50 (read off the curve) of 100 nM. This molecule also had a half-maximal effective concentration (EC50) of IP production in experiment [1] of 1 nM.
